Each block holds one binder with its values, some of them ahead of it.
Legend:
[1] = target: T1, DL3W34, human DLL4 ECD (Ser27-Pro524), C-10xHis (human, UniProt Q9NR61 27-524); experiment: SPR (ProteOn), antibody captured by anti-Fc; DLL4 at 100 nM and 1000 nM
T1 construct: also called huDLL4; TPP0000494661

[2] = target: T2, DL3W35, extracellular domain of human DLL3 linked to a C-terminal 6xHis-Tag and a linker (human, UniProt Q9NYJ7 27-479); experiment: SPR (ProteOn), antibody captured by anti-Fc, DLL3 (DL3W35) titrated
T2 construct: also called human DLL3 ECD; huDLL3
T2 sequence: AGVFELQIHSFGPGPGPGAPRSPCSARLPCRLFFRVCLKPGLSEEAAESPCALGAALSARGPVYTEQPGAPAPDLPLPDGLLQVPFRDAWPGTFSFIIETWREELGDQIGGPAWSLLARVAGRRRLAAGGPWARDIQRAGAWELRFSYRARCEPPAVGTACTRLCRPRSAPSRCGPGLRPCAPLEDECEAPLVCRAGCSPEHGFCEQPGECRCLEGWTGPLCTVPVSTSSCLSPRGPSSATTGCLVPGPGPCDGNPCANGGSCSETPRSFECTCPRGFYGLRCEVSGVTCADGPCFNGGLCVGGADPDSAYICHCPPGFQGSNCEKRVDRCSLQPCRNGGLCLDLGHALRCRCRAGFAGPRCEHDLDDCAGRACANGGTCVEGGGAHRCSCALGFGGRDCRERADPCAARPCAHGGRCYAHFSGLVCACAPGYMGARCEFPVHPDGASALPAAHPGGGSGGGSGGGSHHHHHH

[3] = target: T3, DL3W33, Recombinant Human DLL1 ECD (Ser22-Gly540), -DI-C-6xHis (human, UniProt O00548 22-540); experiment: SPR (ProteOn), antibody captured by anti-Fc; DLL1 at 100 nM and 1000 nM
T3 construct: also called huDLL1; TPP000049465
T3 sequence: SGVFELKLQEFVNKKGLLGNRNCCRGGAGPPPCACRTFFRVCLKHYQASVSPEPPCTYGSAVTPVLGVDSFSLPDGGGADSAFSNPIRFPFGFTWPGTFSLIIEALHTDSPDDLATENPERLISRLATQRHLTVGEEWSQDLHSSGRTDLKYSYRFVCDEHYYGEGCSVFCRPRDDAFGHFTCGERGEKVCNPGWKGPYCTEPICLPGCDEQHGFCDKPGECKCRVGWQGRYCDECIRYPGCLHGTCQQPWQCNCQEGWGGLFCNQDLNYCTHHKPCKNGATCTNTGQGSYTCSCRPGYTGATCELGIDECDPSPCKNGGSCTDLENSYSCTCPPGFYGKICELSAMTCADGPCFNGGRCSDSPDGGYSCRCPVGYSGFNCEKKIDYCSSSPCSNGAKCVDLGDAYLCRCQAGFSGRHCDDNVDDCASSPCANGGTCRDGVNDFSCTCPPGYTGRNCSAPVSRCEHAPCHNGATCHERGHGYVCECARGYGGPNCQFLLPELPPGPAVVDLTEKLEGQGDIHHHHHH

[4] = target: T4, DL3W37, human DLL3 EGF6 domain, HSA Fusion and C-term 6His tag (human); experiment: MSD plate binding assay on coated DLL3 domain-HSA fusions
T4 construct: Fusion with the C34S variant of human serum albumin at the C-terminus of the DLL3 subdomain, plus 6xHis
T4 sequence (chain, as listed by the source limits assumed): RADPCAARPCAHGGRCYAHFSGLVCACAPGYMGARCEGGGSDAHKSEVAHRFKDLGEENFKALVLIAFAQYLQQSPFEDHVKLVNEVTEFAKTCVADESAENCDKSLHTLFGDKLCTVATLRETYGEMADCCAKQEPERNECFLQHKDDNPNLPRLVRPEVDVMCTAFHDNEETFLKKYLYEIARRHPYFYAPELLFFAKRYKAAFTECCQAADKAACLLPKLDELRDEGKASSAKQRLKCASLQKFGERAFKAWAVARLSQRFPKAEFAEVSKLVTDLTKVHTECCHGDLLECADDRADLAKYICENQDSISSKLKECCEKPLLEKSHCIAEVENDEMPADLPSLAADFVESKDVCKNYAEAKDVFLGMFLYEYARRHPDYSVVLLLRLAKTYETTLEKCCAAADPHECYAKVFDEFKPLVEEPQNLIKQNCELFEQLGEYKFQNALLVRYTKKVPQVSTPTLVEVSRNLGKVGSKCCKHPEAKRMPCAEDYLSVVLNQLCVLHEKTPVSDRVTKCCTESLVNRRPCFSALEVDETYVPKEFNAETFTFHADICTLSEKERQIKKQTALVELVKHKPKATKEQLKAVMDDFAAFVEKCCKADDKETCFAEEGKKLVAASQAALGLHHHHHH

[5] = target: T5, recombinant human DLL3 (Example 9, construct not named) (human, UniProt Q9NYJ7 27-492, limits assumed); experiment: SPR (Biacore T200), antibody captured by goat anti-Fc on a C1 chip, DLL3 titrated
T5 construct: also called DLL3 antigen
T5 sequence: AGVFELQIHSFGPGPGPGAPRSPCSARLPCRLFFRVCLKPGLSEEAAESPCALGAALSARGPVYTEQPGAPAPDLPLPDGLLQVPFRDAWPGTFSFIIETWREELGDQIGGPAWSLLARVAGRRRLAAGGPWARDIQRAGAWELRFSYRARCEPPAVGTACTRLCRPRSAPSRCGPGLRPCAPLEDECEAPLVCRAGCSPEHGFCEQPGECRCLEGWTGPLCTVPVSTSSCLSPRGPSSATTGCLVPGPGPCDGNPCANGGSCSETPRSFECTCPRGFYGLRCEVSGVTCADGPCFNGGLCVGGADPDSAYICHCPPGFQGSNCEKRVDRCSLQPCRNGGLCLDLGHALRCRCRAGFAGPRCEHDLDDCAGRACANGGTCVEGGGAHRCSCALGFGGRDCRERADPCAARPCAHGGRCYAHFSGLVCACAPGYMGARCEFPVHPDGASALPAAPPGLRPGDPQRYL

[6] = target: T6, human DLL3 on DLL3+ tumor cells (human, UniProt Q9NYJ7 27-618); experiment: cell-based or functional assay
T6 sequence: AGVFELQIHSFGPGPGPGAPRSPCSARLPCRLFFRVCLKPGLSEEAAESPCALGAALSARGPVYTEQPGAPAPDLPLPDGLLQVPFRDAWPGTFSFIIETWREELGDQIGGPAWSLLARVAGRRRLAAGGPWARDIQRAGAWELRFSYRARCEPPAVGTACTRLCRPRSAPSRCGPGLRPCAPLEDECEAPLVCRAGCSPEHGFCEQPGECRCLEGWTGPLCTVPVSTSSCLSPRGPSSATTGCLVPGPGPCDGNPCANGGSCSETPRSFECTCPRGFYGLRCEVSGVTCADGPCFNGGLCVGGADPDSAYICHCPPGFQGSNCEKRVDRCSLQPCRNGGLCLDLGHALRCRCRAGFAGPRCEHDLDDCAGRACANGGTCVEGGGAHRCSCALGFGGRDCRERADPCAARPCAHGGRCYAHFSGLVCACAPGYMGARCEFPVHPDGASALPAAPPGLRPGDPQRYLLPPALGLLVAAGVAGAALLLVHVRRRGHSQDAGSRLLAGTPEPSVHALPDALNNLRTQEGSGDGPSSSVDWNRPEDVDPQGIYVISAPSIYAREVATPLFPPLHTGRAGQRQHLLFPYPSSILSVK

T1 sequence (Q9NR61 other isoform, or with tags, fused parts or gaps limits assumed): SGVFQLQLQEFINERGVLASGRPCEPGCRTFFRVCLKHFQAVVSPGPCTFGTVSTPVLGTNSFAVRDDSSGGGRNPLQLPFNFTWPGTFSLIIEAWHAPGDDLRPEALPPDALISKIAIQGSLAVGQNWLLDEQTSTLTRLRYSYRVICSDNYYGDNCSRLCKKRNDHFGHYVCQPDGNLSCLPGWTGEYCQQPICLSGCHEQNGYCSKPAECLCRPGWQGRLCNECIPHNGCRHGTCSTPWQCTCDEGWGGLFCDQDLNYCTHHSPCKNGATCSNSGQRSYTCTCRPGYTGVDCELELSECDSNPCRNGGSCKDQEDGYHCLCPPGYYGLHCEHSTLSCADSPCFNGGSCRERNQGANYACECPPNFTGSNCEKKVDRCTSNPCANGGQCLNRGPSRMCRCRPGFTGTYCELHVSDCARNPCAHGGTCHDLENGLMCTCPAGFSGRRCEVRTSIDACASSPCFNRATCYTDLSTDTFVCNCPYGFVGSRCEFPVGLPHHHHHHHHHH

B1: DL3B569 (Fc fusion)
scFv: DIQMTQSPSSLSASVGDRVTITCRASQGISNYLAWFQQKPGKAPKSLIYAASSLQSGVPSKFSGSGSGTDFTLTISSLQPEDFATYYCQQYNSYPYTFAQGTKLEIKGGSEGKSSGSGSESKSTGGSQVQLVQSGAEVKKPGASVKVSCKASGNTFTNYYIHWVRQAPGQGLEWMGIINPSGGSTSYAQKLQGRMTMTRDTSTSTVYMELSSLRSEDTAVYFCARQGPFIGDAFDIWGQGTMVTVSS
notes: The conflict is not resolved; also called DL3B279 scFv-Fc; not shown: wild-type IgG1 Fc domain
binding result [1]: no binding (tested: 1000 nM)
Kd [2]: 0.147 nM
binding result [3]: no binding (tested: 1000 nM)
binding result [4]: binds

B3: DL3B582 (bispecific antibody)
heavy: QVQLVQSGAEVKKPGASVKVSCKASGNTFTNYYIHWVRQAPGQGLEWMGIINPSGGSTSYAQKLQGRMTMTRDTSTSTVYMELSSLRSEDTAVYFCARQGPFIGDAFDIWGQGTMVTVSSASTKGPSVFPLAPSSKSTSGGTAALGCLVKDYFPEPVTVSWNSGALTSGVHTFPAVLQSSGLYSLSSVVTVPSSSLGTQTYICNVNHKPSNTKVDKKVEPKSCDKTHTCPPCPAPEAAGGPSVFLFPPKPKDTLMISRTPEVTCVVVSVSHEDPEVKFNWYVDGVEVHNAKTKPREEQYNSTYRVVSVLTVLHQDWLNGKEYKCKVSNKALPAPIEKTISKAKGQPREPQVYVLPPSREEMTKNQVSLLCLVKGFYPSDIAVEWESNGQPENNYLTWPPVLDSDGSFFLYSKLTVDKSRWQQGNVFSCSVMHEALHNHYTQKSLSLSPG
light: DIQMTQSPSSLSASVGDRVTITCRASQGISNYLAWFQQKPGKAPKSLIYAASSLQSGVPSKFSGSGSGTDFTLTISSLQPEDFATYYCQQYNSYPYTFAQGTKLEIKRTVAAPSVFIFPPSDEQLKSGTASVVCLLNNFYPREAKVQWKVDNALQSGNSQESVTEQDSKDSTYSLSSTLTLSKADYEKHKVYACEVTHQGLSSPVTKSFNRGEC
scFv: DIQMTQSPSSLSASVGDRVTITCRARQSIGTAIHWYQQKPGKAPKLLIKYASESISGVPSRFSGSGSGTDFTLTISSLQPEDFATYYCQQSGSWPYTFGQGTKLEIKGGSEGKSSGSGSESKSTGGSEVQLVESGGGLVKPGGSLRLSCAASGFTFSRYNMNWVRQAPGKGLEWVSSISTSSNYIYYADSVKGRFTFSRDNAKNSLDLQMSGLRAEDTAIYYCTRGWGPFDYWGQGTLVTVSSEPKSSDKTHTCPPCPAPEAAGGPSVFLFPPKPKDTLMISRTPEVTCVVVSVSHEDPEVKFNWYVDGVEVHNAKTKPREEQYNSTYRVVSVLTVLHQDWLNGKEYKCKVSNKALPAPIEKTISKAKGQPREPQVYVYPPSREEMTKNQVSLTCLVKGFYPSDIAVEWESNGQPENNYKTTPPVLDSDGSFALVSKLTVDKSRWQQGNVFSCSVMHEALHNHYTQKSLSLSPG
notes: DLL3 arm: DL3B279-Fab-Fc; CD3 arm: CD3W245-LH-scFv-Fc; IgG1 with L234A/L235A/D265S and heterodimerization mutations; also called CD3W245-LH-scFv; DL3B279-Fab
Kd [5]: 0.016 nM
Cytotoxicity (% Lysis), G361, whole PBMCs, 1:1 ET ratio, 30 nM [6]: 98.9%
Cytotoxicity (% Lysis), HCC1833, whole PBMCs, 1:1 ET ratio, 30 nM [6]: 93.7%
Cytotoxicity (% Lysis), SHP-77, whole PBMCs, 1:1 ET ratio, 30 nM [6]: 87.3%

B4: DL3B583 (bispecific antibody)
heavy: B3 heavy
light: B3 light
scFv: EVQLVESGGGLVKPGGSLRLSCAASGFTFSRYNMNWVRQAPGKGLEWVSSISTSSNYIYYADSVKGRFTFSRDNAKNSLDLQMSGLRAEDTAIYYCTRGWGPFDYWGQGTLVTVSSGGSEGKSSGSGSESKSTGGSDIQMTQSPSSLSASVGDRVTITCRARQSIGTAIHWYQQKPGKAPKLLIKYASESISGVPSRFSGSGSGTDFTLTISSLQPEDFATYYCQQSGSWPYTFGQGTKLEIKEPKSSDKTHTCPPCPAPEAAGGPSVFLFPPKPKDTLMISRTPEVTCVVVSVSHEDPEVKFNWYVDGVEVHNAKTKPREEQYNSTYRVVSVLTVLHQDWLNGKEYKCKVSNKALPAPIEKTISKAKGQPREPQVYVYPPSREEMTKNQVSLTCLVKGFYPSDIAVEWESNGQPENNYKTTPPVLDSDGSFALVSKLTVDKSRWQQGNVFSCSVMHEALHNHYTQKSLSLSPG
notes: DLL3 arm: DL3B279-Fab-Fc; CD3 arm: CD3W245-HL-scFv-Fc; IgG1 with L234A/L235A/D265S and heterodimerization mutations; also called CD3W245-HL-scFv; DL3B279-Fab
Kd [5]: 0.016 nM
Cytotoxicity (% Lysis), G361, whole PBMCs, 1:1 ET ratio, 30 nM [6]: 98.9%
Cytotoxicity (% Lysis), HCC1833, whole PBMCs, 1:1 ET ratio, 30 nM [6]: 88.4%
Cytotoxicity (% Lysis), SHP-77, whole PBMCs, 1:1 ET ratio, 30 nM [6]: 99.8%

Continued, values first:

binding result [1]: no binding (tested: 1000 nM)
Kd [2]: 2.32 nM
binding result [3]: no binding (tested: 1000 nM)
B2: DL3B572 (Fc fusion)
scFv: EVQLVQSGAEVKKPGASVKVSCKASGYTFTTYYIHWVRQAPGQGLEWMGIIDPSGGRTSYAQKFLGRVTMTRDTSTSTVYMELRSLRSEDTAVYYCARGGDGTWYYGMDVWGQGTTVTVSSGGSEGKSSGSGSESKSTGGSDIVMTQSPSFLSASVGDRVTITCRASQGISNYLAWYQQKPGKAPKLLIYAASTLQSGVPSRFSGSGSGTEFTLTISSLQPEDFATYYCQQLNSYPLTFGGGTKVEIK
notes: also called DL3B409 scFv-Fc; not shown: wild-type IgG1 Fc domain

binding result [1]: no binding (tested: 1000 nM)
Kd [2]: 0.0668 nM
binding result [3]: no binding (tested: 1000 nM)
binding result [4]: binds
B5: DL3B570 (Fc fusion)
scFv: EIVLTQSPGTLSLSPGERATLSCRASQSVSRSYLAWYQQKPGQAPRFLIYGASSRATGIPDRFSGSGSGTDFTLTISRLEPEDFAVYYCQQYGTSPITFGQGTRLEIKGGSEGKSSGSGSESKSTGGSQVQLQESGPGLVKPSETLSLSCTVSGDSIRSYYWSWIRQPPGKGLEWIGYIYYSGTTNYKSSLKSRVTISLDTSKKQFSLNLDSVTAADTAVYYCARIGPAGFYFDYWGQGTLVTVSS
notes: also called DL3B332 scFv-Fc; not shown: wild-type IgG1 Fc domain

binding result [1]: no binding (tested: 1000 nM)
Kd [2]: 0.0734 nM
binding result [3]: no binding (tested: 1000 nM)
binding result [4]: binds
B6: DL3B571 (Fc fusion)
scFv: EIVLTQSPGTLSLSPGERATLSCRASQSASSYLAWYQQKPGQAPRLLIYGASSRATGIPDRFSGSGSGTDFTLTISRLEPEDFAVYYCQQYNSSPYTFGQGTKLEIKGGSEGKSSGSGSESKSTGGSQVQLVQSGAEVKKPGASVKVSCKASGHIFISYYIHWVRQAPGQGLEWMGIIDPSGGSKSYAQKFQGRVTMTRDTSTSTVYMELSSLRSEDTAVYYCARQGMIVGTTGDAFDIWGQGTMVTVSS
notes: also called DL3B358 scFv-Fc; not shown: wild-type IgG1 Fc domain

Source: patent publication US20240025992A1 (Janssen / Centocor, published 2024)
